Test results as given in publication PMC10475850.

Columns and labels:
[1] = molecular target: Csp1 (cysteine-rich helical bundle copper-storage protein); assay: SEC; analytical size exclusion of the purified protein (Figure S8); conditions not given
[2] = molecular target: Recombinant Human HB-EGF (human); assay: SPR; Biacore X100, multi-cycle kinetics; HB-EGF amine-coupled to CM5 chip (20 μg/mL, acetate pH 5.0); binders injected at five concentrations (nanomolar range) 180 s, 180 s dissociation; PBS with 0.05% Tween-20, 25°C, 10 μL/min; global fit
[3] = molecular target: Recombinant Human EGF (human)
[4] = molecular target: Recombinant Human EGF (human); assay: SPR; Biacore X100, multi-cycle kinetics; EGF amine-coupled to CM5 chip (100 μg/mL, acetate pH 4.0); binders injected at five concentrations (nanomolar range) 120 s, 180 s dissociation; PBS with 0.05% Tween-20, 25°C, 10 μL/min; global fit
[5] = molecular target: Recombinant Human TGF-alpha (human); assay: SPR; Biacore X100, multi-cycle kinetics; TGF-α amine-coupled to CM5 chip (100 μg/mL, acetate pH 4.5); binders injected at five concentrations (nanomolar to low micromolar range) 60 s, 60 s dissociation; PBS with 0.05% Tween-20, 25°C, 10 μL/min; global fit

Row | Substance | stoichiometry N [1] | Kd [2] [nM] | koff [2] [s⁻¹] | kon [2] [M⁻¹ s⁻¹] | IC50 of inhibition of proliferation of A431 cells stimulated with 400 pM EGF (EGF acting on EGFR), d3-WT at 0.032-500 nM, 72 h [3] [nM] | Kd [4] [nM] | koff [4] [s⁻¹] | kon [4] [M⁻¹ s⁻¹] | Kd [5] [nM] | koff [5] [s⁻¹] | kon [5] [M⁻¹ s⁻¹]
1 | Csp1 (cysteine-rich helical bundle copper-storage protein) (natural protein) | 4 | – | – | – | – | – | – | – | – | – | –
2 | human EGFR domain 3 (d3-WT) (domain or fragment) | – | 370 | 0.0107 | 47200 | 476 | 56 | 0.0028 | 49700 | 2550 | 0.0577 | 38400
